Reference: US20210284724A1 (I MAB BIOPHARMA US, published 2021)

T1: cynomolgus CXCL13 (cynomolgus, UniProt H6WS58 23-109)
T1 construct: also called cynoCXCL13; Cyno CXCL13
T1 sequence: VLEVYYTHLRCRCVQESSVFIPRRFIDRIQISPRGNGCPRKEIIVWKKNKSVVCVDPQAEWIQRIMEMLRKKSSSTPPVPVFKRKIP

T2: human CXCL13 (human, UniProt O43927 23-109)
T2 construct: also called huCXCL13; rhCXCL13
T2 sequence (looked up): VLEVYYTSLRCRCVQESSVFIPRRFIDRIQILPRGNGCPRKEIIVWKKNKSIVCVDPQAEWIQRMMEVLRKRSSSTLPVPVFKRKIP

T3: mouse CXCL13 (mouse, UniProt O55038 22-109)
T3 construct: also called rmCXCL13
T3 sequence (looked up): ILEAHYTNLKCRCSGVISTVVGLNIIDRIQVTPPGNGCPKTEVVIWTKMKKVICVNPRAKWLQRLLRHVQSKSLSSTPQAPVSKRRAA


Experiments:
cynomolgus CXCL13 = target: T1, cynomolgus CXCL13; assay: ELISA, coated antigen
human CXCL13 [1] = target: T2, human CXCL13; assay: ELISA, coated antigen
mouse CXCL13 = target: T3, mouse CXCL13; assay: ELISA, coated antigen
human CXCL13 [2] = target: T2, human CXCL13; assay: cell-based blocking ELISA, CXCL13 to CHO-K1-CXCR5
Method: Splenocytes were electro-fused with mouse myeloma cell line SP2/0 cells and plated into 96-well culture plate. The hybridoma supernatants were tested by ELISA binding assay for anti-human CXCL13 binders. Supernatants of positive binding clones were screened for function in blocking of human CXCL13 binding to its […] CXCR5 by Cell-based receptor blocking ELISA assay. Briefly, 5×10⁴ CHO-K1-CXCR5 cells were plated in 96-well plate with 100 μl of culture medium and incubated at 37° C. overnight. Cells were fixed with 100 μl of 2% PFA at RT for 1 hr after washing with PBS for 1 time. Blocking was done with 1% BSA in PBST for 1 hr at RT. Supernatants were diluted with PBS and pre-incubated with equal volume of 0.3 μg/ml human CXCL13 for 30 min at RT. 100 μl of antibody-antigen complex was then transferred into each cell wells for 30 min at RT. The samples were washed with 1×PBST for 3 times and 100 μl of 3 μg/ml of human Mab5261 antibody was add into each well to capture human CXCL13 and anti-human Fc-HRP was used to indirectly detect human CXCL13 when it bound to CHO-K1-CXCR5 cells. […] Reading was done at […].
Those antibodies were purified from hybridoma supernatants by binding with Protein G column and characterized by ELISA binding assays and cell-based blocking ELISA assays. […] 11/20 clones bound to both human CXCL13 and cynomolgus CXCL13 appeared to completely block human CXCL13 to human CXCR5. 11 blockers bound to both huCXCL13 and cynoCXCL13 were produced as chimeric human IgG1 antibodies for further Characterization.

Binder | binding result (cynomolgus CXCL13) | EC50 (human CXCL13 [1]) [µg/mL] | binding result (mouse CXCL13) | EC50 (cynomolgus CXCL13) [µg/mL] | IC50 (human CXCL13 [2]) [µg/mL] | EC50 (mouse CXCL13) [µg/mL]
329F2E1 (antibody, V domains shown, Hybridoma mAb) VH: EVKLLQSGGGLVQPGGSLKLSCAASGIDFSRYWMSWVRRAPGKGLEWIGEINPDSSTINYAPSLKDKFIISRDNAKNTLYLQMSKVRSEDTALYYCARQDDYDYYAMDYWGQGTSVTVSS VL: DIVMTQSHKFMSTSVGDRVSITCKASQDVSTGVAWYQQKPGQSPKLLIYSASYRYTGVPDRFTGSGSRTDFTFTISSVQTEDPAVYYCHQYYTIPLTFGAGTELELK | – | 0.0166 | no binding | 0.0125 | 0.615 | –
430D9B3 (antibody, V domains shown, Hybridoma mAb) VH: QVTLKESGPEILQPSQTLSLTCTFSGFSLSPYGMGVGWIRQPSGKGLEWLANIWWDDDKYYNPSLINRLTISKDTSNNQAFLKITNVDTTDSATYYCVRSELVMPYVPFDYWGQGVMVTVSS VL: DIQMTQSPSSMSASLGDRVTITCQASQDIENDLIWFQQKPGKSPRPLIYYATNLANGVPSRFSGRRSESNYSLTISSLESEDMADYHCLQFKQYPYTFGAGTKLELK | no binding | 0.0265 | – | – | 3.85 | 0.0547
418D3H6 (antibody, V domains shown, Hybridoma mAb) VH: QVTLKESGPGILQPSQTLSLTCTFSGFSLSTYGMGVGWIRQPSGKGLEWLANIWWDDDKYYNPSLINRLTISKNTSNNQAFLKITNVDAPDTATYYCARSELVMPYVPFDFWGQGIMVTVSS VL: DIQMTQSPSSLSASLGDRITMTCQASQDIGIELIWFQQKPGKSPWPVIYYTANLASGVPSRFSGSRSGSHYSLTISSLESEDMADYHCLQYKQYPFTFGSGTKLEIK | no binding | 48.7 | – | – | 23.3 | 7.49
423A6H6 (antibody, V domains shown, Hybridoma mAb) VH: QVTLKESGPGILQPSQTLSLTCTFSGFSLSTYGMGVGWIRQPSGKGLEWLANIWWDDDKYYNPSLQNRLTISKDTSNNQAFLKITNVDTADTATYYCARSELIMPYVPFDYWGQGVRVTVSS VL: DIQMTQSPSSMSASLGDRVTITCQASQDIDNHLIWFQQKPGKSPRPMIYYATNLANGVPSRFSGSRSGSDYSLTISSLESEDMADYHCLQFKQYPFTFGSGTKLEIK | no binding | 1.56 | – | – | 8.96 | 0.248
424H7F2 (antibody, V domains shown, Hybridoma mAb; also called surrogate anti-CXCL13 antibody) VH: QVTLKESGPEILQPSQTLTLTCTFSGFSLSPYGMGVGWIRQPSGKGLEWLANIWWDDDKYYNPSLINRLTISKDTSNNQAFLKITNVDTTDSATYYCVRSELVMPYVPFDYWGQGVMVTVSS VL: DIQMTQSPSSMSASLGDRVTITCQASQDIENDLIWFQQKPGKSPRPLIYYATNLANGVPSRFSGRRSESNYALTISSLESEDMADYHCLQFKQYPYTFGAGTKLELK | no binding | 0.0109 | – | – | 1.1 | 0.0121
432C12E1 (antibody, V domains shown, Hybridoma mAb) VH: QVTLKESGPGILQPSQTLSLTCTFSGFSLSTYGMGVGWIRQPSGKGLEWLANIWWDDDKYYNPSLKNRLTISKDTSNNQAFLKITNVDTADTATYYCARSEIVMPYVPFDYWGQGVMVTVSS VL: DIQMTQSPSSMSASLGDRVTITCQASQDIGNDLIWFQQKPGKSPRPMIYYATNLANGVPSRFSGSGSGSVYSLTISSLESEDMADYHCLQFKQYPFTFGSGTKLEIK | no binding | 5.1 | – | – | 12.7 | 0.744
416C9H8 (antibody, V domains shown, Hybridoma mAb) VH: QVTLKESGPEILQPSQTLSLTCTFSGFSLSPYGMGVGWIRQPSGKGLEWLANIWWDDDKYYNPSLINRLTISKDTSNNQAFLKITNVDTTDSATYYCVRSELVMPYVPFDYWGQGVMVTVSS VL: DIQMTQSPSSMSASLGDRVTITCQASQDIENDLVWFQQKPGRSPRPLIYYATNLANGVPSRFSGRRSESDYSLTISSLESEDMADYHCLQFKQYPYTFGAGTKLELK | no binding | 5.84 | – | – | 8.46 | 1.97
427C4F11 (antibody, V domains shown, Hybridoma mAb) VH: QVTLKESGPGILQPSQTLSLTCTFSGFSLTTYGMGVGWIRQPSGKGLEWLANIWWDDDKYSNPSLQSRLTISKDTSNNQAFLTITNVDTADTATYYCARSELVMPYVPFDYWGQGVRVTVSS VL: DIQMTQSPSSMSASLGDRVTITCQASQDIDNHLIWFQQKPGRSPRPMIYYATNLANGVPSRFSGSRSGSDYSLTISSLESEDMADYHCLQFKQYPFTFGSGTKLEIK | no binding | 1.33 | – | – | 7.92 | 0.202

Further lines, results first:

binding result (cynomolgus CXCL13) | EC50 (human CXCL13 [1]) [µg/mL] | binding result (mouse CXCL13) | EC50 (cynomolgus CXCL13) [µg/mL] | IC50 (human CXCL13 [2]) [µg/mL] | EC50 (mouse CXCL13) [µg/mL] | Binder
no binding | 0.42 | no binding | – | – | – | 178B2E8 (antibody, V domains shown, Hybridoma mAb) VH: EVKLVESEGGLVQPGSSMKLSCTASGFTFTDYYMTWVRQVPEKGLEWVANINYDGSRTNYLDSLKSRFIISRDNAKNILYLQMSSLKSEDTATYYCARDGNYHFYGMDYWGQGTSVTVSS VL: DFVLTQSHKFMSTSVGDRVSITCKASQDVSTAVAWYQQKPGQSPQLLIYWASTRHTGVPDRFTGSGSGTDYTLTISSVQAEDLALYYCQQHYSTPWTFGGGTKLEIK
– | 0.0104 | no binding | 0.019 | 1.14 | – | 414D10F5 (antibody, V domains shown, Hybridoma mAb) VH: EVQLAESGGGLVQPGRSLKLSCSASGFTFSDYYMAWFRQAPPKGLEWVASISYDGGDSFYRDSVKGRFTISRDNAKSSLYLQMDSLRSEDTATYYCTTEEDYSGSFPDYWGQGVMVTVSS VL: DIQMTQSPSFLSASVGDRVTINCKASQNINKYLNWYQQKLGEAPKRLIYDTNNLQAGIPSRFSGSGSGTDYTLTINSLQPEDFATYFCLQHNSLYTFGGGTKLELK
– | 0.0633 | no binding | 0.145 | 10.1 | – | 1H3A11 (antibody, V domains shown, Hybridoma mAb) VH: EVQLVESGGGLVKPGGSLKLSCAASGFTFSSYAMSWVRQTPEKRLEWVATISDGGSDTYYPDNVKGRFTISRDNAKNNLYLQMSHLKSEDTAMYYCARDYYGSSYEDYAMDYWGQGTSVTVSS VL: DIQMTQSPSSLSASLGGKVTITCKASQDINKYITWYQHKPGKGPRLLIHYTSTLQPGIPSRFSGSGSGRDYSFSISNLEPEDIATYYCLQYDNLYTFGGGTKLEIK
– | 0.0266 | no binding | 1.01 | 3.02 | – | 71F4A3 (antibody, V domains shown, Hybridoma mAb) VH: EVKLLQSGGGLVQPGGSLKLSCAASGIDFSRYWMSWVRRAPGKGLEWIGEINPDSSTINYAPSLKDKFIISRDNAKNTLYLQMSKVRSEDTALYYCARQDDYEYYAMDYWGQGTSVTVSS VL: DIVMTQSHKSMSTSVGDRVSITCKASQDVNTGVAWYRQKPGQSPKLLIYSASYRYTGVPDRFTGSGSGTDFTFTISSVQAEDLAVYYCQQYYSTPLTFGAGTKLELK
no binding | 0.00578 | – | – | 8.72 | 0.0357 | 402H2G12 (antibody, V domains shown, Hybridoma mAb) VH: QVTLKESGPGILQPSQTLSLTCTFSGFSLSTYGMGVGWIRQPSGKGLEWLANIWWDDDKYYNPSLQNRLTISKDTSNNQAFLKINNVDTADTATYYCARSELIMPYVPFDYWGQGVRVTVSS VL: DIQMTQSPSSMSASLGDRVTITCQASQDIDNHLIWFQQKPGKSPRPMIYYATNLANGVPSRFSGSRSGSDYSLTISSLESEDMADYHCLQFKQYPFTFGSGTKLEIK
no binding | 2.91 | – | – | 14.9 | 1.23 | 445A6G7 (antibody, V domains shown, Hybridoma mAb) VH: QVTLKESGPEILQPSQTLSLTCTFSGFSLSPYGMGVGWIRQPSGKGLEWLANIWWDDDKYYNPSLINRLTISKDTSNNQAFLKITNVDTTDSATYYCVRSELVMPYVPFDYWGQGVMVTVSS VL: DIQMTQSPSSMSASLGDRVTITCQASQDIGNDLIWFQQKPGKSPRPLIYYATNLANGVPSRFSGRRSESNYSLTISSLESEDMADYHCLQFKQYPYTFGAGTKLELK
no binding | 9.85 | – | – | 18.2 | 2.96 | 442C9H4 (antibody, V domains shown, Hybridoma mAb) VH: QVTLKESGPGILQPSQTLSLTCSFSGFSLSTYGMGVGWIRQPSGKGLEWLANIWWDDDKYYNPSLINRLTISKNTSNNQAFLKITNVDAPDTATYYCARSELVMPYVPFDFWGQGIMVTVSS VL: DIQMTQSPSSLSASLGDRITITCQASQDIGIDLIWFQQKPGKSPWPVIYYTANLASGVPSRFSGSRSGSHYSLTISSLESEDMADYHCLQYKQYPFTFGSGTKLEIK
